Changes are numbered by the printed parent chain. Bounds are passed on as bounds.

To fix the notation:
B1: C204 (antibody, V domains shown)
VH: EVQLLESGGGLEQPGGSLRLSCAASGFTFSTYAMSWVRQAPGKGLEWVSAISGSGAGTFYADSVKGRFTISRDNSKNTLYLQMNSLRAEDTAVYYCARESDCGSTSCYQVGWFDPWGQGTLVTVSS
VL: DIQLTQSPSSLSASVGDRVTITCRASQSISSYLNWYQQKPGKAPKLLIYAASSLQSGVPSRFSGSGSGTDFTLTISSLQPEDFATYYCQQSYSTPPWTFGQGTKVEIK
B2: C017 (antibody, V domains shown)
VH: EVQLVESGGGLVQPGRSLRLSCAASGFTFDDYAMHWVRQAPGKGLEWVSGISWNSGTIGYADSVKGRFTISRDNAKNSLYLQMNSLRAEDTAFYYCAKAGVRGIAAAGPDLNFDHWGQGTLVTVSS
VL: EIVLTQSPATLSLSPGERATLSCRASQSVSSYLAWYQQKPGQAPRLLIYDASNRATGIPARFSGSGSGTDFTLTISSLEPEDFAVYYCQQRITFGQGTRLEIK
B3: C114 (antibody, V domains shown)
VH: QVQLVESGGGLIQPGGSLKLSCVVSGFTVSKNYISWVRQAPGKGLEWVSVIFAGGSTFYADSVKGRFAISRDNSNNTLFLQMNSLRVEDTAIYYCARGDGELFFDQWGQGTLVTVSS
VL: QSVLTQPPSVSGAPGQRVTISCTGTSSNIGAGYDVHWYQQLPGRAPKVLISGNNIRPSEVPDRFSGSRSGTSASLAITSLQPEDEAQYYCQSYDSSLYAVFGGGTKLTVL
B4: C139 (antibody, V domains shown)
VH: EVQLVESGGGVVQPGRSLRLSCAASGFTFSSYAMHWVRQAPGKGLEWVAVISYDGSNKYSADSVKGRFTISRDNSKNTLYLQMNSLRAEDTAVYYCAKGGAYSYYYYMDVWGKGTTVTVSS
VL: not shown
B5: C013 (antibody, V domains shown)
VH: QVQLVQSGAEVKKPGSSVKVSCKASGGTFSSYAISWVRQAPGQGLEWMGGIIPIFGTANYAQKFQGRVTITADESTSTAYMELSSLRSEDTAVYYCARGNRLLYCSSTSCYLDAVRQGYYYYYYMDVWGKGTTVTVSS
VL: EIVLTQSPATLSLSPGERATLSCRASQSVSSYLAWYQQKPGQAPRLLIYDASNRATGIPARFSGSGSGTDFTLTISSLEPEDFAVYYCQQRSNWPLTFGGGTKVEIK
B6: C143 (antibody, V domains shown)
VH: EVQLVESGGGLVQPGGSLRLSCAASGFSVSTKYMTWVRQAPGKGLEWVSVLYSGGSDYYADSVKGRFTISRDNSKNALYLQMNSLRVEDTGVYYCARDSSEVRDHPGHPGRSVGAFDIWGQGTMVTVSS
VL: QSALTQPASVSGSPGQSITISCTGTSNDVGSYTLVSWYQQYPGKAPKLLIFEGTKRSSGISNRFSGSKSGNTASLTISGLQGEDEADYYCCSYAGASTFVFGGGTKLTVL
B7: C019 (antibody, V domains shown)
VH: QVQLVQSGAEVKKPGASVKVSCKASGYTFTSYYMHWVRQAPGQGLEWMGIINPSGGSTSYAQKFQGRVTMTRDTSTSTVYMELSSLRSEDTAVYYCARVPREGTPGFDPWGQGTLVTVSS
VL: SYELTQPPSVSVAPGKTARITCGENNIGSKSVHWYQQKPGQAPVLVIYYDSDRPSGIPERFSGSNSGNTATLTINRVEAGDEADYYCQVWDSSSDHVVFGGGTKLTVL
B8: C016 (antibody, V domains shown)
VH: EVQLVESGGGVVQPGRSLRLSCAASGFTFSRYGMHWVRQAPGKGLEWVAVISYDGSNKYYADSVKGRFTISRDNSKNTLYLQMNSLRAEDTAVYYCAKVTAPYCSGGSCYGGNFDYWGQGTLVTVSS
VL: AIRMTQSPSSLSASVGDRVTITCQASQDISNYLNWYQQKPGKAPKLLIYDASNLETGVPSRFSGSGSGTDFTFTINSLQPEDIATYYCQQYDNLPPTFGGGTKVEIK
B9: C006 (antibody, V domains shown)
VH: QVQLVESGGGLVKPGGSLRLSCAASGFIFSDYCMSWIRRAPGKGLEWLSYISNSGTTRYYADSVKGRFTISRDNGRNSLYLQMDSLSAEDTAVYYCARRGDGSSSIYYYNYMDVWGKGTTVTVSS
VL: not shown
B10: C110 (antibody, V domains shown)
VH: QVQLQQSGAEVKKPGESLKISCKGSGYSFTSYWIGWVRQMPGKGLEWMGIIYPGDSDTRYSPSFQGQVTISADKSISTAYMQWSSLKASDTAMYYCARSFRDDPRIAVAGPADAFDIWGQGTMVTVSS
VL: DIQMTQSPSTLSASVGDRVTITCRASQSISYWLAWYQQKPGKAPKLLIYQASSLESGVPSRFSGSESGTEFTLTISSLQPDDFATYYCQQYNSYPYTFGQGTKLEIK
B11: C120 (antibody, V domains shown)
VH: EVQLVESGGGLIQPGGSLRLSCAASGFTVSSNYMTWVRQAPGKGLEWVSLIYPGGSTYYADSVKGRFTISRDNSKNTLYLQMNSLRAEDTAVYYCAREGMGMAAAGTWGQGTLVTVSS
VL: AIRMTQSPSSLSASVGDTVTITCQASQDISKYLNWYQQKPGKAPKLLIYDASNLETGVPSRFSGSGSGTDFTFTISSLQPEDIATYYCQQYDNLPQTFGGGTKVEIK
B12: C202 (antibody, V domains shown)
VH: EVQLVESGGGLVQPGGSLRLSCAASGFTVSSNYMSWVRQAPGKGLEWVSLIYSGGSTYYADSVKGRFTISRDNSKNTLYLQMNSLRAEDTAVYYCARDTLGRGGDYWGQGTLVTVSS
VL: B11 VL with A1D, R3Q, M4L, T18R, K31N, Q96R, T97S, G100Q, V104L
B13: C004 (antibody, V domains shown)
VH: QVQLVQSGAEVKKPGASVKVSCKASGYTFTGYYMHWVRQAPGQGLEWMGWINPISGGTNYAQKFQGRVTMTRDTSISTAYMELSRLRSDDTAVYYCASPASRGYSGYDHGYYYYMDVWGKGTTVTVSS
VL: B11 VL with T18R, K31N, Q96I, G100Q, K103R, V104L
B14: C021 (antibody, V domains shown)
VH: QVQLQESGPGLVKPSQTLSLTCTVSGGSISSGGYYWSWIRQHPGKGLEWIGYIYYSGSTYYNPSLKSRVTISVDTSKNQFSLKLSSVTAADTAVYYCARVWQYYDSSGSFDYWGQGTLVTVSS
VL: not shown
B15: C140 (antibody, V domains shown)
VH: EVQLVESGGGLVQPGGSLRLSCAASGVTVSSNYMSWVRQAPGKGLEWVSLIYSGGSTFYADSVKGRFTISRDNSENTLYLQMNTLRAEDTAVYYCARDLYYYGMDVWGQGTTVTVSS
VL: DIQLTQSPSFLSASVGDRVTITCRASQGISSYLAWYQQKPGKAPKLLIYAASTLQSGVPSRFSGSGSGTEFTLTISSLQPEDFATYYCQQLNSYSYTFGQGTKLEIK
B16: C208 (antibody, V domains shown)
VH: EVQLVQSGAEVKKPGESLKISCKGSGYSFTSYWIGWVRQMPGKGLEWMGIIYPGDSDTRYSPSFQGQVTISADKSISTAYLKWSSLKASDSAMYYCARGPNLQNWFDPWGQGTLVTVSS
VL: EIVLTQSPGTLSLSPGERATLSCRASQSVSGSYLAWYQQRPGQAPRLLIYGASSRATGIPDRFSGSGSGTDFTLTISRLEPEDFAVYYCQQYGSSLTFGGGTKVEIK
B17: C205 (antibody, V domains shown)
VH: QVQLVQSGAEVKKPGASVKVSCKASGHTFTSYYMHWVRQAPGQGLEWMGIINPSGGSTSYAQKFQGRVTMTRDTSTSTVYMELSSLRSEDTAVYYCARGPERGIVGATDYFDYWGQGTLVTVSS
VL: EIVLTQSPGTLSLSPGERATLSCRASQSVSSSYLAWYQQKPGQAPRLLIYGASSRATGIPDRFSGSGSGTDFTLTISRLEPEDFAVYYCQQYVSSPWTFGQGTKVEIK
B18: C031 (antibody, V domains shown)
VH: EVQLVESGGGLVQPGGSLRLSCAASGFTFSSYDMHWVRQATGKGLEWVSAIGTAGDTYYPGSVKGRFTISRENAKNSLYLQMNSLRAGDTAVYYCARVGYDSSGYSGWYFDLWGRGTLVTVSS
VL: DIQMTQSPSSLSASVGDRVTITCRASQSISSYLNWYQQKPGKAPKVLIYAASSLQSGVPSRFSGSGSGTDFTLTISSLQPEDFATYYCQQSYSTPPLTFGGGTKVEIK
B19: C148 (antibody, V domains shown)
VH: EVQLVESGGGLVQPGGSQRLSCAASGFTVSSNYMSWIRQAPGKGLEWVSVIYSGGSAYYVDSVKGRFTISRDNSKNTLYLQMNSLRPEDTAVYYCARIANYMDVWGKGTTVTVSS
VL: EIVMTQSPATLSVSPGERATLSCRASQSVSSHLAWYQQKPGQAPRLLIYGASTRATGIPTRFSGSGSGTEFTLTISSLQSEDFAVYYCQQYNNWPPLTFGGGTKVEIK
B20: C151 (antibody, V domains shown)
VH: EVQLVESGGGLVKPGGSLRLSCAASGFTFSSYNMNWVRQAPGKGLEWVSCISSSSSYIYYADSVKGRFTISRDNAKNSLYLQMNSLRAEDTAVYYCARERGYDGGKTPPFLGGQGTLVTVSS
VL: NFMLTQPHSVSESPGKTVTISCTGSSGSIASNYVQWYQQRPGSAPTTVIYEDNQRPSGVPDRFSGSIDSSSNSASLTISGLKTEDEADYYCQSYDSSNYWVFGGGTKLTVL
B21: C018 (antibody, V domains shown)
VH: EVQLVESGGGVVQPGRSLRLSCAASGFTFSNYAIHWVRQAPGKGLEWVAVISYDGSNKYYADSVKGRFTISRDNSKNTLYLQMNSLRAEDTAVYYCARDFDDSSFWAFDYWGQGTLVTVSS
VL: DIQLTQSPSSLSASVGDRVTITCRASQSIRSYLNWYQQKPGKAPKLLIYAASSLQSGVPSRFSGSGSGTDFTLTISSLQPDDFATYYCQQSYSTPPATFGQGTKLEIK
B22: C155 (antibody, V domains shown)
VH: B12 VH with V12I, T28I, L50V, Y58F, T99F, L100G, G101E, R102F, G103Y, G104F
VL: EIVMTQSPATLSVSPGERATLSCRASQSVSSNLAWYQQKPGQAPRLLIYGASTRATAIPARFSGSGSGTEFTLTISSLQSEDFAVYYCQQYNNWPRTFGQGTKVEIK
B23: C210 (antibody, V domains shown)
VH: B15 VH with V12I, V27F, L50V, I69F, E75K, T84S, Y100M, Y101A
VL: DIQLTQSPSFLSASVGDRVTITCRASQGISSYLAWYQQKPGKAPKLLIYAASTLQSGVPSRFSGSGSGTEFTLTISSLQPEDFATYYCQQLNSYPQGTFGGGTKVEIK

In the first test the target is SARS-CoV RBD (SARS-CoV, UniProt P59594). Description: ELISA. On the technique in general: In an ELISA, binding on a coated surface is turned into a signal by an enzyme label.
As a reminder, the EC50 is the concentration that produces a half-maximal response. The molecule B1 displayed an EC50 of 9.41 ng/mL.
As for B2, the EC50 was over 1000 ng/mL.
B3 returned a concentration for a half-maximal effect (EC50) of over 1000 ng/mL.
On the same count and under the same terms, for B4 the value was over 1000 ng/mL; for B5, over 1000 ng/mL.
In turn, B6 gave a half-maximal effective concentration (EC50) of over 1000 ng/mL.
Take B7: the EC50 is over 1000 ng/mL.
In turn, B8 returned a half-maximal effective concentration (EC50) of over 1000 ng/mL.
Still for that read-out and setting: for B9 the value was over 1000 ng/mL; for B10, over 1000 ng/mL; for B11, over 1000 ng/mL.
On the same count and under the same terms, for B12 the value was over 1000 ng/mL; for B13, over 1000 ng/mL.
Still for that read-out and setting: for B14 the value was over 1000 ng/mL; for B15, over 1000 ng/mL.
In turn, B16 gave a half-maximal effective concentration (EC50) of over 1000 ng/mL.
Still for that read-out and setting: for B17 the value was over 1000 ng/mL; for B18, over 1000 ng/mL; for B19, over 1000 ng/mL.
Same read-out and setting: for B20 the value was over 1000 ng/mL; for B21, over 1000 ng/mL; for B22, over 1000 ng/mL.
The same measure, in the same setting: the figure for B23 is over 1000 ng/mL.

The target in another test is SARS-CoV-2 RBD (SARS-CoV-2, UniProt P0DTC2). Kind of test: ELISA.
Turning to B1, a half-maximal response (EC50) required 3.73 ng/mL.
On the same count and under the same terms, the figure for B2 is 1.63 ng/mL.
On the same count and under the same terms, the figure for B3 is 9.51 ng/mL; for B4 it is 1.89 ng/mL.
Take B5: the concentration for a half-maximal effect (EC50) is 2.59 ng/mL. The EC50 values of the last two molecules are within 1.5-fold of each other.
Regarding B6, the EC50 stood at 3.66 ng/mL.
B7 showed an EC50 of 11.8 ng/mL. This EC50 lies about 3.2-fold higher than the previous one.
Molecule B8 returned an EC50 of 7.41 ng/mL.
For B9, the EC50 came to 1.81 ng/mL.
Same read-out and setting: the figure for B10 is 7.29 ng/mL; for B11 it is 1.41 ng/mL; for B12 it is 3.4 ng/mL.
Molecule B13 returned an EC50 of 2.39 ng/mL.
With B14, the EC50 was 1.25 ng/mL.
The same measure, in the same setting: the figure for B15 is 2.19 ng/mL; for B16 it is over 1000 ng/mL; for B17 it is over 1000 ng/mL.
Take B18: it took 22.7 ng/mL to reach a half-maximal effect (EC50).
As for B19, the EC50 came out at 64.7 ng/mL.
Still for that read-out and setting: for B20 the value was 4.3 ng/mL; for B21, 1.53 ng/mL; for B22, 3.3 ng/mL.
Still for that read-out and setting: for B23 the value was 2.83 ng/mL.
